# According to article PMC8138767, “Intrinsically disordered substrates dictate SPOP subnuclear localization and ubiquitination activity” (The Journal of Biological Chemistry, 2021):
# Values joined by “and” are separate entries in the source; they are usually repeats but may differ in a detail not shown here. Equal entries are not always repeated. Where no end group is shown, it is not given here.
# B1: Puc peptide (residues 91-106), unlabeled (peptide)
# peptide: ENLACDEVTSTTSSST
# notes: puckered protein (Puc), residues 91-106; also called dark Puc peptide; unlabeled Puc peptide; source: synthetic peptide (Tufts University Core Facility, HPLC purified)
# B2: Pdx1-C (C-terminal intrinsically disordered region of human Pdx1) (domain or fragment)
# chain: GPGWEDKKRGGGTAVGGGGVAEPEQDCAVTSGEELLALPPPPPPGGAVPPAAPVAAREGRLPPGLSASPQPSSVAPRRPQEPR
# notes: N-terminal Gly-Pro-Gly cloning artefact left after 3C protease; pancreatic and duodenal homeobox 1 (Pdx1), human, amino acids 205-283 by the methods; the exogenous tryptophan may be what is counted as residue 204 (surmise); also called 13C,15N-Pdx1-C; source: E. coli BL-21(DE3), purified (Ni-NTA, 3C protease, second Ni-NTA, heat, anion exchange flow-through); not shown: GST, N-terminal, cleaved; …
# B3: Pdx1-C: recombinant human Pdx1 C-terminal intrinsically disordered region (residues 204–283) (protein)
# chain: B2 chain
# modifications: left off: GST, N-terminal, cleaved | His6, N-terminal, cleaved
# B4: Pdx1-C (C-terminal intrinsically disordered region of human Pdx1) (domain or fragment)
# chain: B2 chain
# notes: N-terminal Gly–Pro–Gly cloning artifact left after 3C protease; pancreatic and duodenal homeobox 1 (Pdx1), human, amino acids 205-283 (methods); The results' 204–283 may count the added tryptophan as position 204; 13C,15N enriched for NMR; also called ^13C, ^15N-Pdx1-C; Pdx1 C terminus; source: E. coli BL-21(DE3), purified (Ni-NTA, 3C protease, second Ni-NTA, heat, anion exchange flow-through); …
# B5: Pdx1–SBM1f peptide (Pdx1 residues 224–234) (peptide)
# peptide: EQDCAVTSGEE
# notes: human Pdx1 residues 224-234, shorter SBM1 peptide used for fluorescence anisotropy; source: synthetic peptide (Tufts University Core Facility, HPLC purified)
# Key:
# [1] = system: SPOP–MATH substrate-binding groove; experiment: 1H,15N HSQC NMR titration of 15N–SPOP–MATH with Pdx1 peptides; set-up: species or system human
# Description: (§1) NMR data collection and analysis
# (§2) NMR data were collected on Bruker Avance III 500, 600, or 850 MHz spectrometers equipped with TCI triple-resonance cryoprobes. All data collection and initial processing were carried out in TopSpin (Bruker). NMR experiments on all proteins were collected in 50 mM sodium phosphate, pH 6.5, 50 mM sodium chloride, 5 mM DTT, 0.01% sodium azide, and 5% D2O unless otherwise noted.
# Addition of Pdx1 peptides into ^15N–SPOP–MATH was monitored by sensitivity-enhanced ^1H, ^15N HSQC. The peptides were mixed in a 4:1 peptide:SPOP mole ratio with between 0.1 and 0.2 mM ^15N–SPOP–MATH. Each experiment consisted of 16 scans and 2048 × 256 complex data points. Spectral comparison was carried out in NMRFAM-Sparky using the assigned ^15N-SPOP-MATH spectrum as a reference. Integrated peak intensities before and after the addition of peptide were compared and normalized within each dataset, and the percent change (1 − Ibound/Iunbound) was plotted on the surface of published SPOP–MATH cocrystal structures (PDB IDs: 3IVV or 6F8F) ([25], [33]) using PyMol (PyMOL Molecular Graphics System, Version 2.1.1, Schrödinger, LLC). In each case, surface coloring corresponds to thresholds of intensity change, where the greatest resonance intensity changes are reflected by the lightest color. […]
# [2] = biological target: T1, SPOP–MATH (residues 28–166) (Homo sapiens, UniProt O43791); experiment: Competition fluorescence anisotropy, displacement of f-Puc from SPOP–MATH; assay type: binding; conditions: competition FA
# T1 construct: glutathione S-transferase (GST) (N, cleaved yes); 6X His (N, cleaved yes); made in house; host or cells: E. coli BL-21(DE3)
# T1 sequence (O43791 28-166): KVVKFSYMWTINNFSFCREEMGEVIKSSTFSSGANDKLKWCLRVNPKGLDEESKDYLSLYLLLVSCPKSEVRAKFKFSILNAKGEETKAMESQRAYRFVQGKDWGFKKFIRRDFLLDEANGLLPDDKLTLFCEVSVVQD
# Source text: An Escherichia coli codon-optimized DNA sequence encoding amino acids 205 to 283 of the human Pdx1 sequence (Pdx1-C) in the multiple cloning site of pET49b(+) was purchased from GeneArt (Thermo Fisher). The pET49b(+) backbone encodes for N-terminal glutathione S-transferase and 6X His tags, followed by a 3C protease recognition motif. In all experiments described herein, a mutant containing an exogenous tryptophan at the N terminus of the human Pdx1-C sequence was used for the purposes of quantitation. Mutations in Pdx1-C were generated by Q5 site-directed mutagenesis (New England Biolabs) with primers designed on NEBbasechanger.com according to the manufacturer protocol. Similarly, an E. coli–optimized DNA sequence encoding residues 28 to 166 of human SPOP (SPOP–MATH) was purchased in pET49b(+) from GeneArt. […] A plasmid encoding His–SUMO–SPOP human residues 28 to 359 harboring a tobacco etch virus protease recognition site directly N terminal to the beginning of the native SPOP protein sequence was generated previously ([21]).
# All FA experiments were conducted in 50 mM sodium phosphate, pH 6.5, 50 mM sodium chloride, 5 mM DTT, 1% BSA, and 0.01% Triton X-100. In all experiments, the source of fluorescence signal was f-Puc purchased from GenScript, at a final concentration of 40 nM. For direct FA measurements, SPOP–MATH or SPOP28–359 of concentrations between 0.001 and 300 μM was added to wells of 96- or 384-well plates containing f-Puc and buffer. For competition-mode experiments, serial dilutions of each competitor (Pdx1 peptide or recombinant protein) were prepared ranging from ∼0.01 μM to ∼2 mM (concentration range varied based on peptide solubility) in wells of 96- or 384-well plates containing 40 nM f-Puc and 6 μM SPOP–MATH or SPOP28–359. The fluorescence polarization of each well was measured (from which FA was calculated) using either a TECAN Infinite M1000 Pro or BioTek Synergy 4 fluorometer. All experiments were performed with at least three technical replicates. FA data points were fit to a complete competitive binding model ([23]) to determine dissociation constants using in-house Python scripts (see Quantification and statistical analysis).
# All titrations were performed in triplicate for rigor. Direct FA titrations were performed to determine the dissociation constants of the fluorescent probe toward SPOP constructs. Direct titration data were fit according to equation 6 in ([54]). Competition mode titration data were fit according to the fitting function in ([23]). Average dissociation constants and standard error from the mean for all constructs from competition experiments may be found in Table S4. The python scripts used in plotting and fitting may be found at https://github.com/idpemery/spop-pdx1.
# [3] = biological target: T2, SPOP28–359 (Homo sapiens, UniProt O43791); experiment: Competition fluorescence anisotropy, displacement of f-Puc from oligomeric SPOP28–359; assay type: binding; conditions: competition FA; 40 nM f-Puc, 6 μM SPOP28–359; 50 mM sodium phosphate pH 6.5, 50 mM NaCl, 5 mM DTT, 1% BSA, 0.01% Triton X-100; complete competitive binding model; ± standard deviation of three independent replicates (Table S4)
# T2 construct: A plasmid encoding His–SUMO–SPOP human residues 28 to 359; His-SUMO (N, cleaved yes); made in house; host or cells: E. coli Rosetta BL-21(DE3)
# T2 sequence (O43791 28-359): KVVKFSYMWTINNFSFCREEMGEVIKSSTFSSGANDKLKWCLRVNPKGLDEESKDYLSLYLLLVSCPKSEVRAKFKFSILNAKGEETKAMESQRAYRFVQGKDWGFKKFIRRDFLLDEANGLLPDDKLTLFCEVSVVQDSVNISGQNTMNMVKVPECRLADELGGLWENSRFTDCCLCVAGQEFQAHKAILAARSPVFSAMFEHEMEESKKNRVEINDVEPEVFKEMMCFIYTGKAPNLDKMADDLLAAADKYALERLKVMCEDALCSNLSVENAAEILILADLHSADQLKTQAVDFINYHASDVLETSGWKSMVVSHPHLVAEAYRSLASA
# Source text: An Escherichia coli codon-optimized DNA sequence encoding amino acids 205 to 283 of the human Pdx1 sequence (Pdx1-C) in the multiple cloning site of pET49b(+) was purchased from GeneArt (Thermo Fisher). The pET49b(+) backbone encodes for N-terminal glutathione S-transferase and 6X His tags, followed by a 3C protease recognition motif. In all experiments described herein, a mutant containing an exogenous tryptophan at the N terminus of the human Pdx1-C sequence was used for the purposes of quantitation. Mutations in Pdx1-C were generated by Q5 site-directed mutagenesis (New England Biolabs) with primers designed on NEBbasechanger.com according to the manufacturer protocol. […]
# All FA experiments were conducted in 50 mM sodium phosphate, pH 6.5, 50 mM sodium chloride, 5 mM DTT, 1% BSA, and 0.01% Triton X-100. In all experiments, the source of fluorescence signal was f-Puc purchased from GenScript, at a final concentration of 40 nM. […] The fluorescence polarization of each well was measured (from which FA was calculated) using either a TECAN Infinite M1000 Pro or BioTek Synergy 4 fluorometer. […] FA data points were fit to a complete competitive binding model ([23]) to determine dissociation constants using in-house Python scripts (see Quantification and statistical analysis). […]
# [4] = biological target: f-Puc, fluorescein-labeled peptide of the SPOP substrate Puc (residues 91-106); experiment: fluorescence polarisation; direct fluorescence anisotropy titration: SPOP construct (0.001-300 μM) added to 40 nM f-Puc; 50 mM sodium phosphate pH 6.5, 50 mM NaCl, 5 mM DTT, 1% BSA, 0.01% Triton X-100
# [5] = biological target: f-Puc (fluorescein-labeled Puc peptide); experiment: fluorescence polarisation; direct fluorescence anisotropy: SPOP construct 0.001-300 μM added to 40 nM f-Puc; 50 mM sodium phosphate pH 6.5, 50 mM NaCl, 5 mM DTT, 1% BSA, 0.01% Triton X-100
# [6] = biological target: T3, SPOP28-359 (human SPOP residues 28-359) (human, UniProt O43791 28-359); experiment: fluorescence polarisation; competition fluorescence anisotropy: competitor (~0.01 μM to ~2 mM) displaces 40 nM f-Puc from 6 μM SPOP-MATH or SPOP28-359; complete competitive binding fit; 50 mM sodium phosphate pH 6.5, 50 mM NaCl, 5 mM DTT, 1% BSA, 0.01% Triton X-100; conditions: both partners purified
# T3 construct: also called oligomeric SPOP; source: E. coli Rosetta BL-21(DE3), purified (Ni-NTA, TEV protease, second Ni-NTA, Superdex 200); not shown: His, N-terminal, cleaved; SUMO, N-terminal, cleaved
# T3 sequence (O43791 28-359): as above
# [7] = biological target: T4, SPOP-MATH (human SPOP residues 28-166) (human, UniProt O43791 28-166); experiment: as above; conditions: both partners purified
# T4 construct: N-terminal Gly-Pro-Gly cloning artefact left after 3C protease; speckle-type POZ protein (SPOP), human, MATH domain, residues 28-166; uniformly 15N-labelled for the NMR experiments; also called 15N-SPOP-MATH; source: E. coli BL-21(DE3), purified (Ni-NTA, 3C protease, second Ni-NTA, Sephacryl S100); not shown: GST, N-terminal, cleaved; His6, N-terminal, cleaved
# T4 sequence (O43791 other isoform, or with tags, fused parts or gaps): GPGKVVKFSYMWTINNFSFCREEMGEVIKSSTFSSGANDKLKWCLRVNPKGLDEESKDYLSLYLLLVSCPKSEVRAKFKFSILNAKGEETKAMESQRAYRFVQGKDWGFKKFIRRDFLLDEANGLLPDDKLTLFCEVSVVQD
# [8] = biological target: T1, SPOP–MATH (residues 28–166); experiment: (HACA)CON NMR of 13C,15N–Pdx1-C with SPOP–MATH; assay type: binding; conditions: 13C direct-detect (HACA)CON, 500 MHz, 25 °C, pH 6.5
# Description: as §1, §2
# Addition of SPOP–MATH into ^13C, ^15N–Pdx1-C was monitored by ^13C direct-detect (HACA)CON experiments ([44]) consisting of 16 scans and 1024 × 128 complex data points. SPOP–MATH was added to ^13C, ^15N–Pdx1-C such that the final concentrations were 0.35 mM and 0.37 mM, respectively. Peaks from each spectrum were integrated and used to calculate a percent intensity change in Pdx1-C resonances after binding of SPOP–MATH. SPOP28–359 was added to ^13C, ^15N–Pdx1-C at a 4-fold molar excess and detected by HSQC or (HACA)CON. Line broadening precluded residue-specific analysis of SPOP28–359 and Pdx1-C.
# [9] = biological target: T5, SPOP_(28–359) (human SPOP residues 28–359) (human, UniProt O43791 28-359); experiment: fluorescence polarisation; competition fluorescence anisotropy: competitor against 40 nM f-Puc and 6 μM SPOP_(28–359); 50 mM sodium phosphate pH 6.5, 50 mM NaCl, 5 mM DTT, 1% BSA, 0.01% Triton X-100; complete competitive binding fit; conditions: both partners purified
# T5 construct: also called His–SUMO–SPOP (before cleavage); source: E. coli Rosetta BL-21(DE3), purified (Ni-NTA, TEV protease, second Ni-NTA, Superdex 200); not shown: His, N-terminal, cleaved; SUMO, N-terminal, cleaved
# T5 sequence (O43791 28-359): as the sequence (O43791 28-359) above
# [10] = biological target: T6, SPOP–MATH (human SPOP residues 28–166) (human, UniProt O43791 28-166); experiment: fluorescence polarisation; competition fluorescence anisotropy: competitor ~0.01 μM to ~2 mM against 40 nM f-Puc and 6 μM SPOP–MATH; 50 mM sodium phosphate pH 6.5, 50 mM NaCl, 5 mM DTT, 1% BSA, 0.01% Triton X-100; complete competitive binding fit; conditions: both partners purified
# T6 construct: N-terminal Gly–Pro–Gly cloning artifact left after 3C protease; speckle-type POZ protein (SPOP), human, MATH domain, residues 28-166; Uniformly 15N (or 13C,15N) enriched for the NMR experiments in which it is the observed protein; also called monomeric SPOP–MATH; ^15N–SPOP–MATH; source: E. coli BL-21(DE3), purified (Ni-NTA, 3C protease, second Ni-NTA, Sephacryl S100 gel filtration); not shown: …
# T6 sequence (O43791 other isoform, or with tags, fused parts or gaps): as the sequence (O43791 other isoform, or with tags, fused parts or gaps) above
molecule,measurement,setting,value
"Ac-GVAEPEQDCAVTSGEELLALPP [Pdx1–SBM1, SB motif 1 peptide of Pdx1 (residues 224–236)]",relative SB affinity from mixed-peptide NMR,[1]; SBM1 and SBM2 peptides added to 15N-SPOP-MATH in equimolar ratios,higher SB affinity of Pdx1–SBM1 than Pdx1–SBM2
same,HSQC spectral changes in SPOP–MATH,"[1]; peptide:15N-SPOP–MATH 4:1, 0.1–0.2 mM 15N–SPOP–MATH, 50 mM sodium phosphate pH 6.5, 50 mM NaCl, 5 mM DTT",spectral changes are primarily localized to the substrate-binding groove
"ENLACDEVTSTTSSST [Puc, reference compound]",Kd,"[2]; 40 nM f-Puc, 6 μM SPOP–MATH, 50 mM sodium phosphate pH 6.5, 50 mM NaCl, 5 mM DTT, 1% BSA, 0.01% Triton X-100, complete competitive binding model, ± standard deviation of three independent replicates (Table S4)",2600 ± 400 nM
same,Kd,[3],2600 ± 1000 nM
SPOP28-359 (human SPOP residues 28-359) (from UniProt O43791 28-359) (domain or fragment),Kd,[4],2550 nM and 2620 nM
SPOP-MATH (human SPOP residues 28-166) (from UniProt O43791 28-166) (domain or fragment),Kd,[4],2620 nM and 2550 nM
SPOP–MATH (human SPOP residues 28–166) (from UniProt O43791 28-166) (domain or fragment),Kd,[5],2600 nM
B1,Kd,[6],2600 nM
same,Kd,[7],2600 nM
B2,Kd,[6],3500 nM
same,Kd,[7],32000 nM
B3,resonance intensity loss in Pdx1-C on addition of SPOP-MATH,[8],marked resonance intensity loss in two specific locations: amino acids 220 to 235 (highlighted in teal) and amino acids 265 to 275
same,"apparent affinity for SPOP–MATH, in words",[2]; Fig. 5 and Table S4,higher apparent affinity for SPOP–MATH than the strongest individual SB motif alone
B4,fold enhancement in binding affinity compared with SPOP–MATH,[9],~10 fold
B5,Kd,[10],140000 nM
